MFI and koff data for three molecules are collected here from patent publication CN106117358A (UNIV SUN YAT SEN, dated 2016).

In experiment [1] the target is CD3 on Jurkat cells (UniProt P07766). Put plainly: flow cytometry, culture supernatant on Jurkat cells (negative control). For orientation: Flow cytometry measures light scatter and fluorescence of single cells or particles in a stream.
The target in a further experiment is T1, CD3-His蛋白(MP-5) (UniProt P07766 23-126).
T1 construct: Immunogen and panning antigen; the construct is not defined; also called CD3蛋白; not shown: His tag
T1 sequence (P07766 23-126): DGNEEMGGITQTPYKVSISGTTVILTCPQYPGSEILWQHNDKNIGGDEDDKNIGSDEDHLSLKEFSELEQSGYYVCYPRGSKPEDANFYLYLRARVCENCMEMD
Put plainly: BLI (Octet RED96), off-rate screening; sdAb-SASA from expression medium captured on BSA-coated biosensor, 100 nM CD3 in solution, 1:1 Langmuir fit, 30°C. A general note: In BLI a coated tip is dipped into the sample, and binding shifts an interference pattern.

The target of experiment [2] is CD3 on Jurkat cells (UniProt P07766). Put plainly: flow cytometry, culture supernatant on Jurkat cells.

As to NC-sdAb (VHH), the MFI with CD3 on Jurkat cells [1] came out at 115.

B1: A30228 (VHH)
VHH: QVKLEESGGGLVQAGDSLTLSCAASGRTFDTMGWFRQAPGKEREFVAAVRWSSGNTYYGNTVKGRFTISRDTATNTVYLEMNSLKHEDTAVYYCAARLAGRGAADHWGQGTQVTVSS
notes: Llama sdAb from a phage display library; Tested as sdAb-SASA protein in E. coli expression medium / culture supernatant (FASEBA format), not purified; 1; also called 抗CD3单域抗体; sdAb; not shown: SASA fusion partner of the pFASEBA vector (sdAb-SASA protein)
In the experiment with CD3-His蛋白(MP-5), B1 gave a koff of 7.61e-05 s⁻¹. The same molecule displayed an MFI with CD3 on Jurkat cells [2] of 240.

B2: A30311 (VHH)
VHH: QVKLEESGGGLVQAGGSLRLSCAASGRTFDTMGWFRQAPGKEREFVAAVRWSSGNTYYGNTVKGRFTISRDTATNTVYLQMNSLKHEDTAVYYCAARLGGRGAADHWGQGTQVTVSS
notes: Llama sdAb from a phage display library; Tested as sdAb-SASA protein in E. coli expression medium / culture supernatant (FASEBA format), not purified; 3; also called 抗CD3单域抗体; sdAb; not shown: SASA fusion partner of the pFASEBA vector (sdAb-SASA protein)
In turn, B2 yielded an off-rate constant (koff) in the experiment with CD3-His蛋白(MP-5) of 0.000153 s⁻¹. Further, in the experiment with CD3 on Jurkat cells [2], the MFI was found to be 299.

The term koff denotes the first-order rate constant of dissociation. Read a low koff as a long-lived complex.
